Test: yeast display, Sf9 membrane polyspecificity reagent, FACS + sequencing; frameworks hold sequencing errors
Outline: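 A synthetic nanobody library was expressed on Saccharomyces cerevisiae BJ5465 by galactose induction for 36–48 hours. The library was stained for 1 hour at 4 °C with 10% biotinylated, detergent-solubilized Sf9 membrane reagent and enriched with streptavidin microbeads before FACS. Low and high (top ~1%) gates were set on anti-HA fluorescence for expression and streptavidin fluorescence for reagent binding, and each polyreactivity label reflects the gate of origin.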

Row | Sequence | polyreactivity (PSR sort gate)
1 | QVQLVESGGGLVQAGGILRLSCAASGSIFSFYAMGWYRQAPGKERELVAAITRSGGTYYADSVKGRFTISRDNAKNTVYLQMNSLKPEDTAVYYCAAQYWYYYIWWEYYYWGQGTQVTVSS | low polyreactivity
2 | QFQLVESGGGLVQAGGSLRLSCAASGIIFDYNAMGWYRQAPGKERELVAAITRGGSTYYADSVNGRFTISRDNAKNTVYVQMTSLKPEDTAVYYCKAVLPVHWSWYDYWGQGTQVTVSS | low polyreactivity
3 | QVQLVESGGGLVQAGGSLRLSSAASGIIFITYAMGWYRQAPGKDRELVAVISFSGGGTYADSVKGRFTISRDNAKNTVYLQMNSLKPEDTAVYYCAARRHSVGDYWLIYDYWGQGTQVTVSS | low polyreactivity
4 | QVQLVESGGGLVQAGGSLRLSCAASGRTFRYYTKGWYRQAPGKERELVAAITYSGGSTYYADSVKGRFTISRDNAMNTVYLQMNSLKPVDTAVYYCAAKASGNYYYYWGQGTQVTVSS | high polyreactivity
5 | QVQLVESVGGLVQAGGSLRLSCAASGSIFRRYTMGWYRQAPGKERELFAAISRVGNTNYAHSVKGRFTISRDNAKNTVYLQMNSLKPEATAVYYCAARAIGYRYTPGLNYWGQGTQVTVSS | high polyreactivity
6 | QVQLVESGGGLVQAGGSLRLSCAASGIIFLKNAMGWYRQAPGKERELVAAITVSGARTYYADSVKGRFTISRDNAKNTVYLQMNSLKPEDTAVYYCATDRSYQRYNYWGQGTQVTVSS | high polyreactivity
7 | QVQLVESGGCLVQAGGRLRLSCAASGSTFRSYTMVWYRQAPGKERELVADINGTGGSTYYADSVKGRFTISRDNAKNTVYLHMNSLKPEDTAVYYCAADGYFRTVTSGWALRMGYWGQGTQVTVSS | high polyreactivity
8 | QVQLVESGEGLVQAGGSLRLSCAASGITFDAYTMGWYRQAPGKERELVAAITWSSTSTYYADSVKGRFTISRDNAKNTVYLQMNSLKPEDTAVFYCAAYRVGDYYWGQGTKVTVSS | low polyreactivity
9 | QVQLVESGGGLVQAGGSLRLSCAASGLIFSYSALAWYRQAPGKERELVGSMSTSGGNTNYADSVKGRFTISRDNAKNTVYVQMNSVKPVDTAVYYCAAGIGKQYHTGYPTAGRKYGYWGQGTQVTVSS | high polyreactivity
10 | QVQILESGGWLVQAGGSLRLSCASSGRTFDVYAMGWYRQAPGKERELVAAISWGAGNTYYADSVKGRFTISRDNAKNTVYLQMNSLKPEDTAVYYCAAEDDWSEYDYWGQGTQVTVSS | high polyreactivity
11 | QVQLVESGGGLVQAGRSLRLSCPASGSTFYTNHMGWYRQAPGKERELVAAITSAGNTNYADSVKGRFTISRDNAKNTVYLQMNSLKPEDTAVYYYYYYQYDYWGQGTQVTVSS | low polyreactivity
12 | QDQLVESVGGLVQAGGSLRLSSAASGFIFYLYAIGWDRQAPGKERDLVAAITRRGGSTYYEDSVKGRFTISRDNAKNTVYLQMNSLKPEDTAVYDCAADHYGFFSAGDFDYWGQGTQVNVSS | high polyreactivity
13 | QVQLVESGGGLVQAGGSLRFSCAASGGFFHGNTMGWYRQAPGKERELVAAISNSGGSTYYADSVKGRFPISRDNAKNTVYLQMNSLKPEDTAVDSCARVGYKLYQYKYDYWGQGTQVTVSS | low polyreactivity
14 | QVQLVESGGGLVQAGGRLRFSCAASGRIFYSYTMGWYRQAPGKERELVASISRSSGDTYYADSVKGRFTISRDNAKNPVYLQMNSLKPEDTAVYYWAARIKTYSKRYYWGQGTQVTVSS | high polyreactivity
15 | QVQLVESGGGLVQAGGSLRLSCAASGFTFVSYAMGWYRQAPGKERELVAAISRSGGRTYYADSVKGRFTISRDNAKNTVYLQMNSLKPEDSAVYYCAKAYRPFYSRVQDYDYWGQGTQVTVSS | high polyreactivity
16 | QVQHEESGGGLVQAGGSLRLSCAASGRIFFGKVMGGYRQAPGTERELVAVITSGGNTNYADSVKGRFTISRDNAKNTVYLQMHSLKPEDTAVYYCATAVVAGVWGYDYWGQGTQVTVSS | low polyreactivity

Row | Sequence | polyreactivity (PSR sort gate)
17 | QVQLVESGGGLVLAGGRLRLSCAASGRTFFDYTMGWYSQAPGKEREFVARISSRTGRTYYADSVKGRFTISRDNEKNTDDLQMNSLKPDDTAVYYCNAVSQYSAFDYWGQGTQVTVSS | high polyreactivity
18 | QVQLVESGGGLVQAGGSLRLSCAASGSIMYVYAMGWYRQAPGKERELVAVITSGGSTNYAESVKGRFTISRDNAKNTVFLQMNSLKPEDTAVYYCAADPYSVYGGDYWGQGTQVTVSS | low polyreactivity
19 | QVQLVESGGGLVQAGGSLRLSCAASGRTFARYAMGWYRQAPGKERELVAVISRTGSTYYADSVKGRFTISRDNAKNTVYLQMNSLKPEDTAVYYCATVYYYLAYGWSYSDMDYWGQGTQVTVSS | high polyreactivity
20 | QVQLVESAGGLVQAGGSLRLICAASGSIFDLYAMGWYRQAPGTERELVAASTWSGGSTYYADSVKGRFTISRDNAKNTVYLQMNSLKPEDTAVYYCAAAYVGTQDLVIDYDYWGQGTQVTVSS | low polyreactivity
21 | QVQLVESGGGLVQAGGSLRLSCAASGRTFGYNAMGWYRQAPGKERELVAAITRGGSTYYADSVKGRFTISRDNAKNTVYLQMNSLKPEDTAVYYCAAKSYWSGYFVGYEYWGQGTQVTVSS | high polyreactivity
22 | HVQLVESGGGLVQAGGSLRLSCAASGSIFDYNAIGWYRQAPGKERELVASSSGDSGSTYYADSVKWRFTISRDYAKNTVYLQMNSLKPEDTAVYYCAAPYVSWDYRYYYWGQGTQVTVSS | low polyreactivity
23 | QVQLVESGGGLVQAGGSLRLSCAASGSTFGSYAMGWYRQAPGKERELVAAISGRGGRTSYADSVKGRFTISRDNAKNTVYLQMNSLKPQDTAVYYCAAKRGGLGVTAASLYDYYFWGQGTQVTVSS | high polyreactivity
24 | QDQLVESGGGLVQAGGSLRLSCAASGSTFQTYAMGWYRQAPGKEREVVAAISFNGGSTYYADSVKGRFTISRDNAKNTVYLQMNSLKPEDTAVYSCAVEYTWASALYDGRHDYWGQGTQVTVSS | high polyreactivity
25 | QVQLVESGGGLVQAGGSLRLSCAASGFIFATYGMGWYRQAPGKERELVATITSGGRTYYADSVKGRFTISRDNAKNTVYLQMNSLKPDDTAVYYCARASRRYWSMDYWGQGTQVSVSS | high polyreactivity
26 | QVQLVESGGGLVQAGGSLRLSCAASGIIFRLYAMGWYRQAPGKERELVAAISYRGGSTYYADSVKGRFTISRDNAKNTVYLQMNSLKPEDTAVYYCAGRNPRYSFYYWGQGTQVTVSS | high polyreactivity
27 | QVQLVESGGGLVQAGGSLRLSCDPSGSIFDGYGMGWYRQAPGKERELVASITWNDGSTYYADSVKGRFTISRDNAKNTVYLQMNSLKPEDTAVYYCAADQWGYEYDYWGQGTQVTVSS | low polyreactivity
28 | QVQLVESGGGLVQAGGSLRLSCAASGSIFTRYAMGWYRQAPGKERELVAAISSGGSTYYADSVKGRFTISRDNAKNTVYLQMNSLKPEDTAVYYCAKDSGSYRVGIYEPFPYGYWGQGTQVTVSS | low polyreactivity
29 | QVQVVESGGGLVQAGGSLRLSCAASGSTFSWYAIGWYIQAPGKDRELVARISSGDRTNYADSVKGRFTITRDNAKNNVYLEMNSQKPEDTAVYYCNADYGQPSYYDDGDYWGQGTQVTVSS | low polyreactivity
30 | QVQLVESGGGLVQAGGSLRLSCAASGIIFGPYVMGWYRQAPGKERELVATISRTGDTYYADSVKGRFTISRDNAKNTVYLQMNSLKPEDTAVYYCAVEWSAHKYYYWGQGTQVTVSS | low polyreactivity
31 | QVQLVESVGGLVQAGGSLRLSCAASGFTFYRYAMGWYRQAPGKERELVAAISWSGGSTYYADSVKGRFTISRDNAKNTVYLQMNSLKPEDTAVYYCAARGGYYDYYYWGQGTQVTVSS | high polyreactivity
32 | QVQLVESGGGLVQAGGSLRLSCAASGRIFGYYAMGWYRQAPGKERELVAAITINGGRTYYADSVKGRFTISRDNAKNTVYLQMNSLKPEDTAVYYCTATSRYNRLGYWGQGTQVTVSS | high polyreactivity
